Test results as given in patent publication US20230257470A1 (published 2023).
Changes are numbered by the printed parent chain. Each block holds one binder with its values, some of them ahead of it.

Legend:
Assay in all cases: SPR (Biacore), antibody captured, FcγR as analyte; amount bound / that of GpH7-B3/GpL16-k0 x 100;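 note: FcγR binding response divided by the captured antibody amount before comparison, measured at 25 °C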
human FcγRIa = molecular target: T1, human FcγRIa (human, UniProt P12314 16-292, limits assumed)
T1 construct: also called FcgRIa; CD64
T1 sequence (P12314 16-292 limits assumed): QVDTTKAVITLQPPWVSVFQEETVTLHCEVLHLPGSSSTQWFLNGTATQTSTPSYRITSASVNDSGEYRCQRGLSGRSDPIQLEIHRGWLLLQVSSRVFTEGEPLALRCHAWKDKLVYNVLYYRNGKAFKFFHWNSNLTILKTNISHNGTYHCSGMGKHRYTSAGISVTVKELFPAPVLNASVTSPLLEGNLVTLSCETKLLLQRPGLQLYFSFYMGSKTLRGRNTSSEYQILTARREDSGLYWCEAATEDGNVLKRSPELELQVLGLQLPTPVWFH
Description: (§1) Interaction between each modified antibody and Fcγ receptor prepared in the manner described above was analyzed using the BIACORE™ T100 surface plasmon resonance system (GE Healthcare), BIACORE™ T200 surface plasmon resonance system (GE Healthcare), BIACORE™ A100 surface plasmon resonance system or BIACORE™ 4000 surface plasmon resonance system. HBS-EP+(GE Healthcare) was used for the running buffer, and measurements were carried out at 25° C. The chips used were chips in which antigen peptides, Protein A (Thermo Scientific), Protein A/G (Thermo Scientific) or Protein L (ACTIGEN® protein (Alltech or BioVision) were immobilized on the Series S Sensor Chip CM5 (GE Healthcare) or Series S Sensor Chip CM4 (GE Healthcare) by amine coupling, or chips in which preliminarily biotinylated antigen peptides were allowed to interact and then immobilized on the Series S Sensor Chip SA (certified) (GE Healthcare). The target antibodies were captured on these sensor chips, Fcγ receptor diluted with the running buffer was allowed to interact, followed by measurement of the amount of bound antibody. The amounts bound were compared between antibodies. However, since the amount of Fcγ receptor bound depends on the amount of captured antibody, the values used for comparison were first corrected by dividing the amount of Fcγ receptor bound by the captured amount of each antibody. Through reaction with 10 mM glycine-HCl at pH 1.5, the sensor chips were regenerated by washing off antibody captured on the sensor chips and used repeatedly.
(§2) Binding strength was evaluated according to the following method based on the results of analyzing the interaction with each FcγR. […] That value was then further multiplied by 100, and the resulting value was used as an indicator of relative binding activity to each FcγR.

human FcγRIIa(R) = molecular target: T2, human FcγRIIa(R) (human, UniProt P12318 36-217)
T2 construct: also called FcgRIIaR; FcγRIIa type R
T2 chain: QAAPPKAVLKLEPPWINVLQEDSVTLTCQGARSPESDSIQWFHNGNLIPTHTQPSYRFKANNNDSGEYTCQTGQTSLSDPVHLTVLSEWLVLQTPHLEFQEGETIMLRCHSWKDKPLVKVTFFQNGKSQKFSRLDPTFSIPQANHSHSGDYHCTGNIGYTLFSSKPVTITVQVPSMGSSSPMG
Description: as §1, §2

human FcγRIIa(H) = molecular target: T3, human FcγRIIa(H) (human, UniProt P12318 36-217)
T3 construct: also called FcgRIIaH; FcγRIIa type H
T3 sequence: T2 chain with R133H
Description: as §1, §2

human FcγRIIb = molecular target: T4, human FcγRIIb (human, UniProt P31994 43-217, limits assumed)
T4 construct: also called FcgRIIb; FcγIIB
T4 sequence: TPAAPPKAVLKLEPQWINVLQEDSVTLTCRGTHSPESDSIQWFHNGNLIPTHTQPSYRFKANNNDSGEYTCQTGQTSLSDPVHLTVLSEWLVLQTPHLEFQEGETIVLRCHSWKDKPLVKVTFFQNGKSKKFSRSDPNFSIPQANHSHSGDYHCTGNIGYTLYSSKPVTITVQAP
Description: as §1, §2

human FcγRIIIa(F) = molecular target: T5, human FcγRIIIa(F) (human, UniProt P08637 17-208, limits assumed)
T5 construct: also called FcgRIIIaF; FcγRIIIa allotype F158
T5 sequence (P08637 other isoform, or with tags, fused parts or gaps limits assumed): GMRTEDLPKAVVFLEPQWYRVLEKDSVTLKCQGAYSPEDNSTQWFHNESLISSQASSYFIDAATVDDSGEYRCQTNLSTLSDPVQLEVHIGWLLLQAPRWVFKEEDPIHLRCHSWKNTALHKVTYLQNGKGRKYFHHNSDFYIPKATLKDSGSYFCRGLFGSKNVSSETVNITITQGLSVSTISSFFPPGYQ
Description: as §1, §2

B1: GpH7-B3/GpL16-k0 variant P271S (antibody, human IgG1)
heavy: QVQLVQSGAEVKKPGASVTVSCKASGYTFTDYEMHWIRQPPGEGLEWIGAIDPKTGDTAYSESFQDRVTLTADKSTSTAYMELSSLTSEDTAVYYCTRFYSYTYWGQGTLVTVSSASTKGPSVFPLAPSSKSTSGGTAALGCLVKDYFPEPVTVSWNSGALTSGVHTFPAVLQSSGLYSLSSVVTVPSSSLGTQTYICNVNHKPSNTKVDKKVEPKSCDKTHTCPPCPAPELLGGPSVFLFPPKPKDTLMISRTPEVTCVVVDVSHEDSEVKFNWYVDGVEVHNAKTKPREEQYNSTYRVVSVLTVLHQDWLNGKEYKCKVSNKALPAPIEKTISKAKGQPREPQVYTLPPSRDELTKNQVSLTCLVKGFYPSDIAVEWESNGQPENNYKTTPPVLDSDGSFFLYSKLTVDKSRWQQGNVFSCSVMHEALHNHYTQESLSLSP
light: DIVMTQSPLSLPVTPGEPASISCQASESLVHSNRNTYLHWYLQKPGQSPQLLIYKVSNRFSGVPDRFSGSGSGTDFTLKISRVEAEDVGVYYCSQNTHVPPTFGQGTKVEIE
notes: also called B3 variant; copies: 2 + 2
relative binding activity (human FcγRIa): 99 GpH7-B3/GpL16-k0 = 100 | relative binding activity (human FcγRIIa(R)): 83 GpH7-B3/GpL16-k0 = 100 | relative binding activity (human FcγRIIa(H)): 67 GpH7-B3/GpL16-k0 = 100 | relative binding activity (human FcγRIIb): 82 GpH7-B3/GpL16-k0 = 100 | relative binding activity (human FcγRIIIa(F)): 62 GpH7-B3/GpL16-k0 = 100

B3: GpH7-B3/GpL16-k0 variant Q295N (antibody, human IgG1)
heavy: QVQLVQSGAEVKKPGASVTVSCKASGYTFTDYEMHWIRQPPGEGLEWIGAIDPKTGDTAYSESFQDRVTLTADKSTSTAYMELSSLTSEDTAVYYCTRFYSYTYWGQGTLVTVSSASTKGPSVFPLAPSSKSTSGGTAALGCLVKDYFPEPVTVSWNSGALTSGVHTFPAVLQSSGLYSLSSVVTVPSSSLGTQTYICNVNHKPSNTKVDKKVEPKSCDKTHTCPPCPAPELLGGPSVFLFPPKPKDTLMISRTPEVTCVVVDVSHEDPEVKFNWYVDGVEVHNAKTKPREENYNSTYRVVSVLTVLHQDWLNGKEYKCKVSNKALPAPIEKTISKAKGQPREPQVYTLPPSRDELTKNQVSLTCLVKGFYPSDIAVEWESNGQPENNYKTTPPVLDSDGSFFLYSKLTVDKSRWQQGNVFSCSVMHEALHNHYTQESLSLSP
light: B1 light
notes: as for B1
relative binding activity (human FcγRIa): 99 GpH7-B3/GpL16-k0 = 100 | relative binding activity (human FcγRIIa(R)): 56 GpH7-B3/GpL16-k0 = 100 | relative binding activity (human FcγRIIa(H)): 74 GpH7-B3/GpL16-k0 = 100 | relative binding activity (human FcγRIIb): 41 GpH7-B3/GpL16-k0 = 100 | relative binding activity (human FcγRIIIa(F)): 68 GpH7-B3/GpL16-k0 = 100

B6: GpH7-B3/GpL16-k0 variant Q295F (antibody, human IgG1)
heavy: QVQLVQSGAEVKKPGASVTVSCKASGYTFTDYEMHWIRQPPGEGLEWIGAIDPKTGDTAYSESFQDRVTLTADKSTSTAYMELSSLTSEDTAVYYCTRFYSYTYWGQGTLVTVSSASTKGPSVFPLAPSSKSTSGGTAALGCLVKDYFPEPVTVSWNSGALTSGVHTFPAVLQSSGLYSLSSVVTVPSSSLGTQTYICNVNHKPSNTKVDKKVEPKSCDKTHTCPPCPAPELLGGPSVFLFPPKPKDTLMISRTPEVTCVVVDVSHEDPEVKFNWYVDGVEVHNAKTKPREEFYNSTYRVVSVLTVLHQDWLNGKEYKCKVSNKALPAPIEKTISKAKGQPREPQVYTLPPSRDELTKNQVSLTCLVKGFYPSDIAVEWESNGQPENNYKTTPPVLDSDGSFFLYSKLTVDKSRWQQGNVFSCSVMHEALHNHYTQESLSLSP
light: B1 light
notes: as for B1
relative binding activity (human FcγRIa): 99 GpH7-B3/GpL16-k0 = 100 | relative binding activity (human FcγRIIa(R)): 46 GpH7-B3/GpL16-k0 = 100 | relative binding activity (human FcγRIIa(H)): 74 GpH7-B3/GpL16-k0 = 100 | relative binding activity (human FcγRIIb): 30 GpH7-B3/GpL16-k0 = 100 | relative binding activity (human FcγRIIIa(F)): 46 GpH7-B3/GpL16-k0 = 100

B8: GpH7-B3/GpL16-k0 variant Q295Y (antibody, human IgG1)
heavy: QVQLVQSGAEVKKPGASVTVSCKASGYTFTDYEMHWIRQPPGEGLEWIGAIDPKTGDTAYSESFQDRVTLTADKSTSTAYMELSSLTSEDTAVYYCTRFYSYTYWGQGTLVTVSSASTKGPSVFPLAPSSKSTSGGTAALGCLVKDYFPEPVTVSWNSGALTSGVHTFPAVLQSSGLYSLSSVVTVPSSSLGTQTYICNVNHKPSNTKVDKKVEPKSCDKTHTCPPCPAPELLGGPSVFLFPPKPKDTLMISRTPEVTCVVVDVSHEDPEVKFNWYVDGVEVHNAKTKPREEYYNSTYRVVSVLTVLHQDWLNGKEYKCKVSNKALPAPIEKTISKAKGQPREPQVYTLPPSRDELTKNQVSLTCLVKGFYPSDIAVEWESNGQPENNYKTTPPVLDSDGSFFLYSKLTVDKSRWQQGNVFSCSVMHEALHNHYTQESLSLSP
light: B1 light
notes: as for B1
relative binding activity (human FcγRIa): 95 GpH7-B3/GpL16-k0 = 100 | relative binding activity (human FcγRIIa(R)): 38 GpH7-B3/GpL16-k0 = 100 | relative binding activity (human FcγRIIa(H)): 70 GpH7-B3/GpL16-k0 = 100 | relative binding activity (human FcγRIIb): 24 GpH7-B3/GpL16-k0 = 100 | relative binding activity (human FcγRIIIa(F)): 49 GpH7-B3/GpL16-k0 = 100

B11: GpH7-B3/GpL16-k0 variant Q295D (antibody, human IgG1)
heavy: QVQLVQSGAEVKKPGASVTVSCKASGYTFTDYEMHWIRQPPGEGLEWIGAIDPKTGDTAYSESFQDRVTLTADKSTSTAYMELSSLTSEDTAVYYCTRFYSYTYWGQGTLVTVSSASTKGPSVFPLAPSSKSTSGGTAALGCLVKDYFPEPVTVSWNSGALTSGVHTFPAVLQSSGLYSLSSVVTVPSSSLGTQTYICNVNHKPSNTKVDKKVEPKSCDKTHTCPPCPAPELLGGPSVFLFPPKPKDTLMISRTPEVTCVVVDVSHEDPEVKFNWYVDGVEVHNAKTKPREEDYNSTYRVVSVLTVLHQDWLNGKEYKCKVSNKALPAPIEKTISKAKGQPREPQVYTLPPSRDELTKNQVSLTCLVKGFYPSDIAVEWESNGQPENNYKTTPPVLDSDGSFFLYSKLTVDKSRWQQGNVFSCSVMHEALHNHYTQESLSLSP
light: B1 light
notes: as for B1
relative binding activity (human FcγRIa): 95 GpH7-B3/GpL16-k0 = 100 | relative binding activity (human FcγRIIa(R)): 43 GpH7-B3/GpL16-k0 = 100 | relative binding activity (human FcγRIIa(H)): 37 GpH7-B3/GpL16-k0 = 100 | relative binding activity (human FcγRIIb): 40 GpH7-B3/GpL16-k0 = 100 | relative binding activity (human FcγRIIIa(F)): 64 GpH7-B3/GpL16-k0 = 100

B12: GpH7-B3/GpL16-k0 variant P271W (antibody, human IgG1)
heavy: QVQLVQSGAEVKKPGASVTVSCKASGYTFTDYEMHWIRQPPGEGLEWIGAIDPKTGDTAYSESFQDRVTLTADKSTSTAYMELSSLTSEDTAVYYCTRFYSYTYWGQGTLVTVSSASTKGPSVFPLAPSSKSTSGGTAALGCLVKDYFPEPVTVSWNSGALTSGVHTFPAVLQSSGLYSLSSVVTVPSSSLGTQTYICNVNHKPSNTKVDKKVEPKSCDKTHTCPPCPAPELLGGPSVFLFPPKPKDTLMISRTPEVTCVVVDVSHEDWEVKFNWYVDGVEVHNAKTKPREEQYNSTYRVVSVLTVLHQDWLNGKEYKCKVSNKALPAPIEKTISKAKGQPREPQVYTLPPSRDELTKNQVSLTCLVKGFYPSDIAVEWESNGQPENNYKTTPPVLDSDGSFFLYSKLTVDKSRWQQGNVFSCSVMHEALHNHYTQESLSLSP
light: B1 light
notes: as for B1
relative binding activity (human FcγRIa): 100 GpH7-B3/GpL16-k0 = 100 | relative binding activity (human FcγRIIa(R)): 46 GpH7-B3/GpL16-k0 = 100 | relative binding activity (human FcγRIIa(H)): 75 GpH7-B3/GpL16-k0 = 100 | relative binding activity (human FcγRIIb): 33 GpH7-B3/GpL16-k0 = 100 | relative binding activity (human FcγRIIIa(F)): 57 GpH7-B3/GpL16-k0 = 100

Continued, values first:

relative binding activity (human FcγRIa): 100 GpH7-B3/GpL16-k0 = 100 | relative binding activity (human FcγRIIa(R)): 33 GpH7-B3/GpL16-k0 = 100 | relative binding activity (human FcγRIIa(H)): 35 GpH7-B3/GpL16-k0 = 100 | relative binding activity (human FcγRIIb): 23 GpH7-B3/GpL16-k0 = 100 | relative binding activity (human FcγRIIIa(F)): 71 GpH7-B3/GpL16-k0 = 100
B2: GpH7-B3/GpL16-k0 variant S298Y (antibody, human IgG1)
heavy: not shown
light: B1 light
notes: as for B1

relative binding activity (human FcγRIa): 15 GpH7-B3/GpL16-k0 = 100 | relative binding activity (human FcγRIIa(R)): 0 GpH7-B3/GpL16-k0 = 100 | relative binding activity (human FcγRIIa(H)): 0 GpH7-B3/GpL16-k0 = 100 | relative binding activity (human FcγRIIb): -1 GpH7-B3/GpL16-k0 = 100 | relative binding activity (human FcγRIIIa(F)): 0 GpH7-B3/GpL16-k0 = 100
B4: GpH7-B3/GpL16-k0 variant S298P (antibody, human IgG1)
heavy: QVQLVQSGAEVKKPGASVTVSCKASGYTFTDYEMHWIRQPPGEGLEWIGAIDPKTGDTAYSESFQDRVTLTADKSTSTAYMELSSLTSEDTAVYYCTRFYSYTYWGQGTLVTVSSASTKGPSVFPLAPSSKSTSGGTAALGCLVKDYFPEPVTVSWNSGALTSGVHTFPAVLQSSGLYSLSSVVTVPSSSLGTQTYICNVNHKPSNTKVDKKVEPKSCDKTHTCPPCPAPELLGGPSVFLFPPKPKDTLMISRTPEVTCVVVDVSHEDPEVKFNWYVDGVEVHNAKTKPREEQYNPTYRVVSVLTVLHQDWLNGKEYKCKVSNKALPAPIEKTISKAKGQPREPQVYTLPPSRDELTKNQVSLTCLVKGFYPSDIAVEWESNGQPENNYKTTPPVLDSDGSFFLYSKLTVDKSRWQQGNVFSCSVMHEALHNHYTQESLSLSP
light: B1 light
notes: as for B1

relative binding activity (human FcγRIa): 99 GpH7-B3/GpL16-k0 = 100 | relative binding activity (human FcγRIIa(R)): 70 GpH7-B3/GpL16-k0 = 100 | relative binding activity (human FcγRIIa(H)): 66 GpH7-B3/GpL16-k0 = 100 | relative binding activity (human FcγRIIb): 45 GpH7-B3/GpL16-k0 = 100 | relative binding activity (human FcγRIIIa(F)): 21 GpH7-B3/GpL16-k0 = 100
B5: GpH7-B3/GpL16-k0 variant Y296K (antibody, human IgG1)
heavy: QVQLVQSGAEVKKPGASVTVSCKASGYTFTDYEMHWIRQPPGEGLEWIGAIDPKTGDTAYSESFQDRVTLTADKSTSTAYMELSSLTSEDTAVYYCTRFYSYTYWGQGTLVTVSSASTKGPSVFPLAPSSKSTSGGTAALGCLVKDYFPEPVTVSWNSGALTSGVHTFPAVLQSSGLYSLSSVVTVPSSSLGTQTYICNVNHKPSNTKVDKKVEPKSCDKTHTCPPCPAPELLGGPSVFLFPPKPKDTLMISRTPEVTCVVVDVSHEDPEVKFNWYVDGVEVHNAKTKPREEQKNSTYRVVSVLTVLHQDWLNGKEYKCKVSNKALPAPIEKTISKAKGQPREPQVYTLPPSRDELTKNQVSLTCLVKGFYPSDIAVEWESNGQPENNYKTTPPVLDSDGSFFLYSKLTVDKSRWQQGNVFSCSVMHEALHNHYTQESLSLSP
light: B1 light
notes: as for B1

relative binding activity (human FcγRIa): 100 GpH7-B3/GpL16-k0 = 100 | relative binding activity (human FcγRIIa(R)): 77 GpH7-B3/GpL16-k0 = 100 | relative binding activity (human FcγRIIa(H)): 74 GpH7-B3/GpL16-k0 = 100 | relative binding activity (human FcγRIIb): 52 GpH7-B3/GpL16-k0 = 100 | relative binding activity (human FcγRIIIa(F)): 38 GpH7-B3/GpL16-k0 = 100
B7: GpH7-B3/GpL16-k0 variant Y296R (antibody, human IgG1)
heavy: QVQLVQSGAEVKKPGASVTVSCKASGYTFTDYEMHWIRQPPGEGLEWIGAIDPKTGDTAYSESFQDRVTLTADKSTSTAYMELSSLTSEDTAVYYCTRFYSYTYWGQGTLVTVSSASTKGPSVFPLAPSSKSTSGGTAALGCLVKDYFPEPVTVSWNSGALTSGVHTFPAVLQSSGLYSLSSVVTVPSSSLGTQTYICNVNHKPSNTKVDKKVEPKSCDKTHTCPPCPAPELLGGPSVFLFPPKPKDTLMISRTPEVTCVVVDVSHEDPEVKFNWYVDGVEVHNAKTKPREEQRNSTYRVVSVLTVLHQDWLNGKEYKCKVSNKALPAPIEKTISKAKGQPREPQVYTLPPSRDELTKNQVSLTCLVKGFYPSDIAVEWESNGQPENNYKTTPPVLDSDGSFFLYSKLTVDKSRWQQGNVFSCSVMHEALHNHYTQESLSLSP
light: B1 light
notes: as for B1

relative binding activity (human FcγRIa): 88 GpH7-B3/GpL16-k0 = 100 | relative binding activity (human FcγRIIa(R)): 79 GpH7-B3/GpL16-k0 = 100 | relative binding activity (human FcγRIIa(H)): 38 GpH7-B3/GpL16-k0 = 100 | relative binding activity (human FcγRIIb): 34 GpH7-B3/GpL16-k0 = 100 | relative binding activity (human FcγRIIIa(F)): 25 GpH7-B3/GpL16-k0 = 100
B9: GpH7-B3/GpL16-k0 variant S298K (antibody, human IgG1)
heavy: not shown
light: B1 light
notes: as for B1

relative binding activity (human FcγRIa): 100 GpH7-B3/GpL16-k0 = 100 | relative binding activity (human FcγRIIa(R)): 77 GpH7-B3/GpL16-k0 = 100 | relative binding activity (human FcγRIIa(H)): 83 GpH7-B3/GpL16-k0 = 100 | relative binding activity (human FcγRIIb): 58 GpH7-B3/GpL16-k0 = 100 | relative binding activity (human FcγRIIIa(F)): 21 GpH7-B3/GpL16-k0 = 100
B10: GpH7-B3/GpL16-k0 variant Y296G (antibody, human IgG1)
heavy: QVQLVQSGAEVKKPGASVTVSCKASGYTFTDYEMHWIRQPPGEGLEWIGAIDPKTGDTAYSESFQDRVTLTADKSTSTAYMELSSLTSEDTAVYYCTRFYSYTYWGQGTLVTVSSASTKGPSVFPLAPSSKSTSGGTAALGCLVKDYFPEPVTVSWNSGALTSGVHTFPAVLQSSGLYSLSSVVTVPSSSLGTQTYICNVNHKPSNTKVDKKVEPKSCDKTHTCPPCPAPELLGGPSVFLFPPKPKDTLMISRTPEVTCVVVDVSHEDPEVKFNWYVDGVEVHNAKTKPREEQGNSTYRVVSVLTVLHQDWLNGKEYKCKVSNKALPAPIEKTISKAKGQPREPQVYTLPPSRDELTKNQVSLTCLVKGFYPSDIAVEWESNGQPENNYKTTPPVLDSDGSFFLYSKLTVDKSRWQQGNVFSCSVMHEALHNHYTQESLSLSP
light: B1 light
notes: as for B1
